Data on one variant can be found in IntAct's records for PubMed 7973632.

The labels stand for the following.
B1: Receptor-like protein kinase 5 (Arabidopsis thaliana (Mouse-ear cress)), P47735 (parent)
chain: MLYCLILLLCLSSTYLPSLSLNQDATILRQAKLGLSDPAQSLSSWSDNNDVTPCKWLGVSCDATSNVVSVDLSSFMLVGPFPSILCHLPSLHSLSLYNNSINGSLSADDFDTCHNLISLDLSENLLVGSIPKSLPFNLPNLKFLEISGNNLSDTIPSSFGEFRKLESLNLAGNFLSGTIPASLGNVTTLKELKLAYNLFSPSQIPSQLGNLTELQVLWLAGCNLVGPIPPSLSRLTSLVNLDLTFNQLTGSIPSWITQLKTVEQIELFNNSFSGELPESMGNMTTLKRFDASMNKLTGKIPDNLNLLNLESLNLFENMLEGPLPESITRSKTLSELKLFNNRLTGVLPSQLGANSPLQYVDLSYNRFSGEIPANVCGEGKLEYLILIDNSFSGEISNNLGKCKSLTRVRLSNNKLSGQIPHGFWGLPRLSLLELSDNSFTGSIPKTIIGAKNLSNLRISKNRFSGSIPNEIGSLNGIIEISGAENDFSGEIPESLVKLKQLSRLDLSKNQLSGEIPRELRGWKNLNELNLANNHLSGEIPKEVGILPVLNYLDLSSNQFSGEIPLELQNLKLNVLNLSYNHLSGKIPPLYANKIYAHDFIGNPGLCVDLDGLCRKITRSKNIGYVWILLTIFLLAGLVFVVGIVMFIAKCRKLRALKSSTLAASKWRSFHKLHFSEHEIADCLDEKNVIGFGSSGKVYKVELRGGEVVAVKKLNKSVKGGDDEYSSDSLNRDVFAAEVETLGTIRHKSIVRLWCCCSSGDCKLLVYEYMPNGSLADVLHGDRKGGVVLGWPERLRIALDAAEGLSYLHHDCVPPIVHRDVKSSNILLDSDYGAKVADFGIAKVGQMSGSKTPEAMSGIAGSCGYIAPEYVYTLRVNEKSDIYSFGVVLLELVTGKQPTDSELGDKDMAKWVCTALDKCGLEPVIDPKLDLKFKEEISKVIHIGLLCTSPLPLNRPSMRKVVIMLQEVSGAVPCSSPNTSKRSKTGGKLSPYYTEDLNSV
partner: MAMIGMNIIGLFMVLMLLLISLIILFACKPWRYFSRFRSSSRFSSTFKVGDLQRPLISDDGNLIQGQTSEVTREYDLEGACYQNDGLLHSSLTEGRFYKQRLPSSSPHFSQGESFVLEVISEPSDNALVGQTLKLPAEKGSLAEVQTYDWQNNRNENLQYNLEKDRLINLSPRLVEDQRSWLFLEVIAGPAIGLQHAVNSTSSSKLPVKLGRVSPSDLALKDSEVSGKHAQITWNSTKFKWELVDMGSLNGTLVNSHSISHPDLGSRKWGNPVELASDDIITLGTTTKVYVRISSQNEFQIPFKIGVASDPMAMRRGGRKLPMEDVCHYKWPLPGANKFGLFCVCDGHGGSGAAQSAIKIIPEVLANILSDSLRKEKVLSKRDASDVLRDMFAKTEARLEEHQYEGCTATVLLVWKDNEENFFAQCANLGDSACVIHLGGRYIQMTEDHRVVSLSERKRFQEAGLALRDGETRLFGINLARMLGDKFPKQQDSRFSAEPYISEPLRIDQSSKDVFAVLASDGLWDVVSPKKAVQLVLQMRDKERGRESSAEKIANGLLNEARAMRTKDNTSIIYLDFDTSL

In the experiment the parent is B1. The following applies: with KAPP.
As to K711E, the “effect of a mutation on the interaction” value is “disrupting interaction”.
